These results are taken from patent US7820412.

The data set concerns MutS (MBP-MutS-H6 fusion) (Thermus aquaticus). Briefly: pulldown. The conditions noted are these: MutS selectivity factor M estimated by model from consensus shuffling error rates; 20 mM Tris-HCl pH 7.8, 10 mM NaCl, 5 mM MgCl2, 1 mM DTT, 5% glycerol, room ….

Consider “re-hybridized GFPuv fragments (average 150 bp) containing synthesis-error mismatches”, for which the binding signal (fold selectivity) is 2.2.
